# Results: patent US20220154296A1, “USE OF ANTI-PD-1 ANTIBODY IN PREPARATION OF MEDICAMENT FOR TREATING SOLID TUMORS” (Shanghai Junshi Biosciences Co., Ltd., priority 2019, published 2022)
# [1] = ESCC patients, 3 mg/kg Q2W, n = 59
# Procedure: The anti-PD-1 antibody dose groups for this study: 3 mg/kg dose group at first. After enrollment, subjects will receive treatment every 2 weeks (Q2W) for a 4-week cycle, until disease progression, onset of intolerable toxicity, withdrawal of consent by the subject, no further benefit at the discretion of the investigator, or death.
# The planned dose was 3 mg/kg, Q2W.
substance,measurement,setting,value
toripalimab: humanized IgG4 anti-PD-1 mAb comprising light and heavy chain amino acid sequences set forth in SEQ ID NOs: 9 and 10 (WO2014206107),Common TRAE: ALT elevation,59 ESCC patients,11.9%
same,Common TRAE: AST elevation,59 ESCC patients,13.6%
same,Common TRAE: anemia,59 ESCC patients,18.6%
same,Common TRAE: constipation,59 ESCC patients,10.2%
same,Common TRAE: cough,59 ESCC patients,16.9%
same,Common TRAE: fatigue,59 ESCC patients,11.9%
same,Common TRAE: fever,59 ESCC patients,16.9%
same,Common TRAE: hypothyroidism,59 ESCC patients,13.6%
same,Common TRAE: leukopenia,59 ESCC patients,15.3%
same,Common TRAE: loss of appetite,59 ESCC patients,18.6%
same,Common TRAE: low hemoglobin counts,59 ESCC patients,10.2%
same,Common TRAE: nausea,59 ESCC patients,11.9%
same,Common TRAE: total bilirubin increase,59 ESCC patients,10.2%
same,Common TRAE: weight loss,59 ESCC patients,18.6%
same,Grade 3 TRAE: anemia,59 ESCC patients,2 cases
same,Grade 3 TRAE: anorexia,59 ESCC patients,1 case
same,Grade 3 TRAE: dysphagia,59 ESCC patients,1 case
same,Grade 3 TRAE: esophageal stenosis,59 ESCC patients,1 case
same,Grade 3 TRAE: fatigue,59 ESCC patients,1 case
same,Grade 3 TRAE: hydrocardia,59 ESCC patients,1 case
same,Grade 3 TRAE: hypercalcemia,59 ESCC patients,1 case
same,Grade 3 TRAE: hypertension,59 ESCC patients,1 case
same,Grade 3 TRAE: hyponatremia,59 ESCC patients,2 cases
same,Grade 3 TRAE: leukopenia,59 ESCC patients,1 case
same,Grade 3 TRAE: neck infection,59 ESCC patients,1 case
same,Grade 3 TRAE: upper respiratory infection,59 ESCC patients,1 case
same,Grade 4 TRAE: hyperuricemia,59 ESCC patients,1 case
same,Grade 4 TRAE: paraplegia,59 ESCC patients,1 case
same,Patients permanently discontinued due to TRAE,59 ESCC patients,23.7%
same,Patients with Grade 3 and higher TRAEs,59 ESCC patients,32.2%
same,Patients with Grade 4 TRAEs,59 ESCC patients,3.4%
same,Patients with dose discontinuation due to TRAE,59 ESCC patients,10.2%
same,Patients with grade 3 TRAEs,59 ESCC patients,18.6%
same,Safety in ESCC patients (conclusion),59 ESCC patients,controlled safety
same,Treatment-related death: cachexia,59 ESCC patients,1 case
same,Treatment-related death: pneumonia,59 ESCC patients,2 cases
same,Treatment-related death: unknown etiology,59 ESCC patients,3 cases
same,Patients with treatment-related adverse events (TRAEs),"59 ESCC patients, as of Dec. 31, 2018",94.9%
same,Treatment-related deaths,"59 ESCC patients, likely unrelated to the treatment",six
same,"ALT elevation, Level 1",[1],7 (11.9) n (%)
same,"ALT elevation, Level 2",[1],0 n (%)
same,"ALT elevation, Level 3",[1],0 n (%)
same,"ALT elevation, Level 4",[1],0 n (%)
same,"ALT elevation, Level 5",[1],0 n (%)
same,"ALT elevation, Total",[1],7 (11.9) n (%)
same,"AST elevation, Level 1",[1],8 (13.6) n (%)
same,"AST elevation, Level 2",[1],0 n (%)
same,"AST elevation, Level 3",[1],0 n (%)
same,"AST elevation, Level 4",[1],0 n (%)
same,"AST elevation, Level 5",[1],0 n (%)
same,"AST elevation, Total",[1],8 (13.6) n (%)
same,"Anemia, Level 1",[1],6 (10.2) n (%)
same,"Anemia, Level 2",[1],2 (3.4) n (%)
same,"Anemia, Level 3",[1],3 (5.1) n (%)
same,"Anemia, Level 4",[1],0 n (%)
same,"Anemia, Level 5",[1],0 n (%)
same,"Anemia, Total",[1],11 (18.6) n (%)
same,"Constipation, Level 1",[1],5 (8.5) n (%)
same,"Constipation, Level 2",[1],1 (1.7) n (%)
same,"Constipation, Level 3",[1],0 n (%)
same,"Constipation, Level 4",[1],0 n (%)
same,"Constipation, Level 5",[1],0 n (%)
same,"Constipation, Total",[1],6 (10.2) n (%)
same,"Cough, Level 1",[1],6 (10.2) n (%)
same,"Cough, Level 2",[1],4 (6.8) n (%)
same,"Cough, Level 3",[1],0 n (%)
same,"Cough, Level 4",[1],0 n (%)
same,"Cough, Level 5",[1],0 n (%)
same,"Cough, Total",[1],10 (16.9) n (%)
same,"Fatigue, Level 1",[1],6 (10.2) n (%)
same,"Fatigue, Level 2",[1],1 (1.7) n (%)
same,"Fatigue, Level 3",[1],0 n (%)
same,"Fatigue, Level 4",[1],0 n (%)
same,"Fatigue, Level 5",[1],0 n (%)
same,"Fatigue, Total",[1],7 (11.9) n (%)
same,"Fever, Level 1",[1],8 (13.3) n (%)
same,"Fever, Level 2",[1],2 (3.4) n (%)
same,"Fever, Level 3",[1],0 n (%)
same,"Fever, Level 4",[1],0 n (%)
same,"Fever, Level 5",[1],0 n (%)
same,"Fever, Total",[1],10 (16.9) n (%)
same,"Hypothyroidism, Level 1",[1],5 (8.5) n (%)
same,"Hypothyroidism, Level 2",[1],3 (5.1) n (%)
same,"Hypothyroidism, Level 3",[1],0 n (%)
same,"Hypothyroidism, Level 4",[1],0 n (%)
same,"Hypothyroidism, Level 5",[1],0 n (%)
same,"Hypothyroidism, Total",[1],8 (13.6) n (%)
same,"Leukopenia, Level 1",[1],6 (10.2) n (%)
same,"Leukopenia, Level 2",[1],3 (5.1) n (%)
same,"Leukopenia, Level 3",[1],0 n (%)
same,"Leukopenia, Level 4",[1],0 n (%)
same,"Leukopenia, Level 5",[1],0 n (%)
same,"Leukopenia, Total",[1],9 (15.3) n (%)
same,"Loss of appetite, Level 1",[1],6 (10.2) n (%)
same,"Loss of appetite, Level 2",[1],4 (6.8) n (%)
same,"Loss of appetite, Level 3",[1],1 (1.7) n (%)
same,"Loss of appetite, Level 4",[1],0 n (%)
same,"Loss of appetite, Level 5",[1],0 n (%)
same,"Loss of appetite, Total",[1],11 (18.6) n (%)
same,"Low hemoglobin counts, Level 1",[1],3 (5.1) n (%)
same,"Low hemoglobin counts, Level 2",[1],3 (5.1) n (%)
same,"Low hemoglobin counts, Level 3",[1],0 n (%)
same,"Low hemoglobin counts, Level 4",[1],0 n (%)
same,"Low hemoglobin counts, Level 5",[1],0 n (%)
same,"Low hemoglobin counts, Total",[1],6 (10.2) n (%)
same,"Nausea, Level 1",[1],5 (8.5) n (%)
same,"Nausea, Level 2",[1],2 (3.4) n (%)
same,"Nausea, Level 3",[1],0 n (%)
same,"Nausea, Level 4",[1],0 n (%)
same,"Nausea, Level 5",[1],0 n (%)
same,"Nausea, Total",[1],7 (11.9) n (%)
same,"Total bilirubin increase, Level 1",[1],6 (10.2) n (%)
same,"Total bilirubin increase, Level 2",[1],0 n (%)
same,"Total bilirubin increase, Level 3",[1],0 n (%)
same,"Total bilirubin increase, Level 4",[1],0 n (%)
same,"Total bilirubin increase, Level 5",[1],0 n (%)
same,"Total bilirubin increase, Total",[1],6 (10.2) n (%)
same,"Treatment-related adverse events, Level 1",[1],13 (22.0) n (%)
same,"Treatment-related adverse events, Level 2",[1],24 (40.7) n (%)
same,"Treatment-related adverse events, Level 3",[1],11 (18.6) n (%)
same,"Treatment-related adverse events, Level 4",[1],2 (3.4) n (%)
same,"Treatment-related adverse events, Level 5",[1],6 (10.2) n (%)
same,"Treatment-related adverse events, Total",[1],56 (94.9) n (%)
same,"Weight loss, Level 1",[1],8 (13.6) n (%)
same,"Weight loss, Level 2",[1],3 (5.1) n (%)
same,"Weight loss, Level 3",[1],0 n (%)
same,"Weight loss, Level 4",[1],0 n (%)
same,"Weight loss, Level 5",[1],0 n (%)
same,"Weight loss, Total",[1],11 (18.6) n (%)
